Experimental data as given in publication PMC7613265.

What was measured:
[1] = target: RNase E (1-850), catalytically inactive, truncated degradosome scaffold;RhlB;Enolase D303N;D346N (Escherichia coli;Escherichia coli;Escherichia coli) (UniProt P21513+P0A8J8+P0A6P9); experiment: SEC-SAXS; settings: SEC-SAXS buffer not given in the material. EMSA (30S ribosomal subunit, not listed because it is a ribonucleoprotein): 40 mM Tris-HCl pH 7.5, 100 mM NaCl …
[2] = target: RNase E (1-850) (E. coli) (UniProt P21513); experiment: AUC; sedimentation velocity, truncated degradosome at 4 mg/ml in buffer S6 (50 mM Tris-HCl pH 7.5, 400 mM NaCl, 100 mM KCl, 5 mM MgCl2, 1 mM TCEP, 0.02% beta-DDM, 10% glycerol), 4 C

Row | stoichiometry N [2] | Substance | binding [1]
1 |  | GAAGCUGUUUUGGCGGAUGAGAGAAGAUUUUCAGCCUGAUACAGAUUAAAUCAGAACGCAGAAGCGGUCUGAUAAAACAGAAUUUGCCUGGCGGCAGUAGCGCGGUGGUCCCACCUGACCCCAUGCCGAACUCAGAAGUGAAACGCCGUAGCGCCGAUGGUAGUGUGGGGUCUCCCCAUGCGAGAGUAGGGAACUGCCAGGCAUCAAAUAAAACGAAAGGCUCAGUCGAAAGACUGGGCCUUUCG [9S RNA (5S rRNA precursor)] | binds
2 | 4 | RNase E (1-850) (from UniProt P21513 1-850) (domain or fragment) | 
